In publication PMC7914648 (Pharmaceuticals, 2021):
“And” between values parts separate entries of the source, which are not always exact repeats. Equal values may be shown once.

Key:
[1] = Tissue distribution of An2-PAPTP and metabolites (liver, spleen, kidneys, heart) after i.v. injection; assay type: in vivo, mouse; details: for metabolite in heart, 15 min / metabolite in spleen, 15 min: N = 5; for metabolite in liver, 15 min: n = 5; for metabolite in liver, 30 min: n = 4; for metabolite in liver, 60 min: n = 6; for metabolite in kidneys, 15 min, single animal: found in one animal out of five
Text: The total amount of An2-PAPTP and its metabolites, summarized in Table 3, is comprehensive of all the species having the characteristic psoralenic UV spectrum obtained by the overall extraction procedure (i.e., from organic solvent extraction and basic hydrolysis of the remaining pellet), and represents and underestimation of the real concentration in the tissue (see Section 4.7.3). This is because no recovery yield correction was applied, since it was impossible to identify most of the species extracted, and because PAPTPL extracted after high-pH hydrolysis of the pellet could come either from An2-PAPTP or from metabolites. For quantification in HPLC analysis, all the psoralenic species were assumed to have the same molar extinction coefficient as PAPTPL, an assumption justified by the near-identity observed for all the available psoralen-containing molecules.
(§1) The liver, spleen, kidneys, heart obtained from untreated mice were weighed and homogenized with PBS pH 7.4 (1 vol) with a potter. The pre-established amount of PAPTPL was added into tissue homogenates or blood and, after thorough vortexing, 5 vol of acetone were added and the sample was sonicated for 2 min. Subsequently, 5 vol of ACN containing 0.1% TFA were added and the sample was sonicated for 5 min. The sample was then centrifuged at 12,000× g for 7 min at 4 °C and the supernatant was collected, concentrated with a Hetovac VR-1, and analyzed via HPLC-UV.
as §1, with “Brain and liver” for “The liver, spleen, kidneys, heart”, “analyte” for “PAPTPL”, “homogenates” for “homogenates or blood”, “trifluoracetic acid (TFA)” for “TFA”
To quantify the amount of An2-PAPTP stuck in the tissue, the pellet remaining after the procedure described above was incubated with intermittent Vortexing at 60 °C for 3 h with PBS pH 12.5/ACN 1:1 and then centrifuged at 12,000× g for 7 min. HPLC-UV analysis of the supernatant, measuring PAPTPL hydrolyzed from the tissue, thus indirectly reflects the amount of An2-PAPTPL in the pellet (Scheme 3). Quantification was as described for PAPTPL.
A stock solution of the peptide-PAPTP conjugates was prepared in DMSO. TAT-PAPTP was administered at 8 and 5 μmol/kg bw and An2-PAPTP only at 5 μmol/kg bw. The calculated quantity of drugs was diluted from the stock solution in saline or mouse plasma to a final volume of 200 μL.

[2] = design: method as in 4 sources, ref 50, 59 = [50]; PMID 12697897; doi:10.1073/pnas.0931245100; 50. Smith R.A.J. Porteous C.M. Gane A.M. Murphy M.P. Delivery of bioactive molecules to mitochondria in vivo Proc. Natl. Acad. Sci. USA 2003 100 5407 5412 10.1073/pnas.0931245100 12697897 PMC154358 || [59]; PMID 23454352; doi:10.1016/j.bbagen.2013.02.005; 59. Porteous C.M. Menon D.K. Aigbirhio F.I. Smith R.A. Murphy M.P. P-glycoprotein (Mdr1a/1b) and breast cancer resistance protein (Bcrp) decrease the uptake of hydrophobic alkyl triphenylphosphonium c ||| ref 59 = [59]; PMID 23454352; doi:10.1016/j.bbagen.2013.02.005; 59. Porteous C.M. Menon D.K. Aigbirhio F.I. Smith R.A. Murphy M.P. P-glycoprotein (Mdr1a/1b) and breast cancer resistance protein (Bcrp) decrease the uptake of hydrophobic alkyl triphenylphosphonium c ||| ref 50 = [50]; PMID 12697897; doi:10.1073/pnas.0931245100; 50. Smith R.A.J. Porteous C.M. Gane A.M. Murphy M.P. Delivery of bioactive molecules to mitochondria in vivo Proc. Natl. Acad. Sci. USA 2003 100 5407 5412 10.1073/pnas.0931245100 12697897 PMC154358 ||| ref 60 = [60]; PMID 31751762; doi:10.1016/j.freeradbiomed.2019.11.021; 60. Pinho B.R. Duarte A.I. Canas P.M. Moreira P.I. Murphy M.P. Oliveira J.M.A. The interplay between redox signalling and proteostasis in neurodegeneration: In vivo effects of a mitochondria-targeted; details: cited from earlier work
Text: TPP-driven mitochondriotropic compounds are not necessarily excluded from the brain [47, 48, 49, 50]. The literature contains several reports of the use of mitochondria-targeted probes to report on cerebral processes or of mitochondria-tar ...

[3] = fresh mouse blood, withdrawn from the jugular vein and heparinized; details: C57BL mice, 37 °C, up to 4 h
[4] = after An2-PAPTP 5 µmoles/kg bw i.v., mean ± SEM
[5] = after An2-PAPTP 5 µmoles/kg bw i.v., liver, mean ± SEM
[6] = after An2-PAPTP 5 µmoles/kg bw i.v., liver, 30 min, mean ± SEM
[7] = after An2-PAPTP i.v., mean ± SEM, N = 4
[8] = after An2-PAPTP i.v., mean ± SEM
[9] = after An2-PAPTP i.v., mean ± SEM, N = 6
[10] = after An2-PAPTP i.v., kidneys, found in one animal out of four

Row | Compound | metabolite in heart, 15 min [1, 4] [nmol/g fresh tissue] | metabolite in liver, 15 min [1, 5] [% administered dose] | metabolite in liver, 30 min [1, 6] [% administered dose] | metabolite in liver, 60 min [1, 5] [% administered dose] | metabolite in heart, 30 min [1, 7] [% administered dose] | metabolite in heart, 15 min [1, 8] [% administered dose] | metabolite in kidneys, 15 min, single animal ([1]; after An2-PAPTP i.v., kidneys) | metabolite in spleen, 30 min [1, 7] [% administered dose] | metabolite in spleen, 15 min [1, 8] [% administered dose] | metabolite in spleen, 60 min [1, 9] [% administered dose] | metabolite in kidneys, 30 min, single animal [1, 10] | also measured
1 | CC[C@H](C)[C@H](NC(=O)Oc1ccc(CCCOc2ccc([P+](CCCc3ccc(OCCCCOc4c5ccoc5cc5oc(=O)ccc45)cc3)(c3ccccc3)c3ccccc3)cc2)cc1)C(=O)N[C@H](C(=O)N[C@@H](Cc1ccccc1)C(=O)O)[C@@H](C)O [PAPTPL-ITF, PAPTPL-isoleucine-threonine-phenylalanine] | 0 | 1.7 ± 1.0 | 1.2 ± 0.5 | 3.9 ± 1.0 | 0.008 ± 0.007 | 0 | 0.01 % administered dose | 0.02 ± 0.01 | 0.13 ± 0.08 | 0.08 ± 0.01 |  | metabolite in kidneys, 30 min ([1]; after An2-PAPTP i.v., kidneys, mean ± SEM, N = 4): 0.12 ± 0.08 % administered dose; metabolite in kidneys, 60 min ([1]; after An2-PAPTP i.v., kidneys, mean ± SEM, N = 6): 0.02 ± 0.01 % administered dose
2 | CC[C@H](C)[C@H](NC(=O)Oc1ccc(CCCOc2ccc([P+](CCCc3ccc(OCCCCOc4c5ccoc5cc5oc(=O)ccc45)cc3)(c3ccccc3)c3ccccc3)cc2)cc1)C(=O)N[C@H](C(=O)O)[C@@H](C)O [PAPTPL-IT, PAPTPL-isoleucine- threonine] | 0 | 2.8 ± 1.0 | 2.7 ± 1.8 | 6.2 ± 1.6 | 0.01 ± 0.01 | 0 | 0.04 % administered dose | 0.07 ± 0.04 | 0.10 ± 0.04 | 0.07 ± 0.03 | 0.05 % administered dose | metabolite in kidneys, 60 min, single animal ([1]; after An2-PAPTP i.v., kidneys, found in one animal out of six): 0.006 % administered dose
3 | COC1=C(OC)C(=O)C(CCCCCCCCCC[P+](c2ccccc2)(c2ccccc2)c2ccccc2)=C(C)C1=O [MitoQ] |  |  |  |  |  |  |  |  |  |  |  | amount in the brain, R6/2 mice ([2]; 500 µM MitoQ in drinking water for 6 weeks, R6/2 mice): ~5 pmol/g; amount in the brain, WT mice ([2]; 500 µM MitoQ in drinking water for 6 weeks, WT mice): about 1 pmol/g; steady-state brain radioactivity levels ([2]; 10-day administration of 500 µM in drinking water): ~0.15 nmol/gr fresh tissue; initial peak concentration in brain tissue ([2]; i.v. injection of 100 nmol radiolabelled compound in (WT) mice, scintillation counting): about 0.05 nmol/gr; Area Under Curve in brain ([2]; i.v., wild-type mice): 0.6 nmol·h/g wet weight
4 | HN-IGRKKRRQRRRPPQG-OH |  |  |  |  |  |  |  |  |  |  |  | cleaved bond [3]: hydrolysis of the carbamate bond connecting the peptide and PAPTPL
5 | CCC(C)C(NC(=O)Oc1ccc(CCCOc2ccc([P+](CCCc3ccc(OCCCCOc4c5ccoc5cc5oc(=O)ccc45)cc3)(c3ccccc3)c3ccccc3)cc2)cc1)C(=O)O.O=C([O-])C(F)(F)F (stereo not drawn) [PAPTPL-I, (4-(3-(4-(((1-carboxy-2-methylbutyl)carbamoyl)oxy)phenyl)propoxy)phenyl) (3-(4-(4-((7-oxo-7H-furo[3,2-g]chromen-4-yl)oxy)butoxy)phenyl)propyl)diphenylphosphonium 2,2,2-trifluoroacetate] | 0 | 0.4 ± 0.2 |  |  |  | 0 | 0.32 nmol/g fresh tissue and 0.02 % administered dose |  | 0.04 ± 0.02 |  | 0.32 nmol/g fresh tissue and 0.03 % administered dose | metabolite in liver, 15 min ([1]; after An2-PAPTP 5 µmoles/kg bw i.v. in mouse plasma, liver, HPLC-UV, mean ± SEM): 0.5 ± 0.3 nmol/g fresh tissue; metabolite in spleen, 15 min [1, 4]: 0.7 ± 0.3 nmol/g fresh tissue; metabolite in liver, 30 min, single animal ([1]; after An2-PAPTP i.v., liver, 30 min, found in one animal out of four): 0.2 nmol/g fresh tissue and 0.03 % administered dose
